# Earlier results, collected in PMC8666702 (Hypertension (Dallas, Tex. : 1979), 2021).
# Key:
# [1] = system: insulin degrading enzyme (IDE)
substance,measurement,setting,value
atrial natriuretic peptide [ANP],Degradation by neprilysin (NEP),neprilysin (NEP),rapid degradation
same,Degradation by insulin degrading enzyme (IDE),[1],rapid degradation
